Laboratory results taken from patent publication US20110027820A1.

Molecular target: Gal4 DNA binding domain (DBD) fused to the RXR ligand binding domain (GBD:RXR) (yeast; human) (UniProt P04386)
Assay: cell-based or functional assay

increase in the sensitivity of chemical complementation (yeast growth in response to 9cRA) against GBD:RXR alone: 1000 fold
Substance: human nuclear receptor coactivator ACTR fused to the yeast Gal4 activation domain (ACTR:GAD) (from UniProt Q9Y6Q9 1-1424)
